doi:10.1101/2023.01.09.523258 (bioRxiv, 2023)

Target: the molecule itself
Assay: native MS

B1: Conalbumin (Ovotransferrin/OVT) from chicken egg white (natural protein, UniProt P02789 20-705, looked up)
chain: APPKSVIRWCTISSPEEKKCNNLRDLTQQERISLTCVQKATYLDCIKAIANNEADAISLDGGQAFEAGLAPYKLKPIAAEVYEHTEGSTTSYYAVAVVKKGTEFTVNDLQGKTSCHTGLGRSAGWNIPIGTLLHRGAIEWEGIESGSVEQAVAKFFSASCVPGATIEQKLCRQCKGDPKTKCARNAPYSGYSGAFHCLKDGKGDVAFVKHTTVNENAPDQKDEYELLCLDGSRQPVDNYKTCNWARVAAHAVVARDDNKVEDIWSFLSKAQSDFGVDTKSDFHLFGPPGKKDPVLKDLLFKDSAIMLKRVPSLMDSQLYLGFEYYSAIQSMRKDQLTPSPRENRIQWCAVGKDEKSKCDRWSVVSNGDVECTVVDETKDCIIKIMKGEADAVALDGGLVYTAGVCGLVPVMAERYDDESQCSKTDERPASYFAVAVARKDSNVNWNNLKGKKSCHTAVGRTAGWVIPMGLIHNRTGTCNFDEYFSEGCAPGSPPNSRLCQLCQGSGGIPPEKCVASSHEKYFGYTGALRCLVEKGDVAFIQHSTVEENTGGKNKADWAKNLQMDDFELLCTDGRRANVMDYRECNLAEVPTHAVVVRPEKANKIRDLLERQEKRFGVNGSEKSKFMMFESQNKDLLFKDLTKCLFKVREGTTYKEFLGDKFYTVISSLKTCNPSDILQMCSFLEGK
stoichiometry N: 2
